Holding throughout (assay): yeast two-hybrid (LexA-KMD bait, B42-ARR prey, X-gal)
Experiment [1] concerns the target T1, ARR12 (Arabidopsis, UniProt P62598 1-596).
T1 construct: YFP^N or YFP^C fusion of the full-length cDNA in BiFC; also called AtARR12; type-B response regulator AtARR12
T1 sequence (looked up): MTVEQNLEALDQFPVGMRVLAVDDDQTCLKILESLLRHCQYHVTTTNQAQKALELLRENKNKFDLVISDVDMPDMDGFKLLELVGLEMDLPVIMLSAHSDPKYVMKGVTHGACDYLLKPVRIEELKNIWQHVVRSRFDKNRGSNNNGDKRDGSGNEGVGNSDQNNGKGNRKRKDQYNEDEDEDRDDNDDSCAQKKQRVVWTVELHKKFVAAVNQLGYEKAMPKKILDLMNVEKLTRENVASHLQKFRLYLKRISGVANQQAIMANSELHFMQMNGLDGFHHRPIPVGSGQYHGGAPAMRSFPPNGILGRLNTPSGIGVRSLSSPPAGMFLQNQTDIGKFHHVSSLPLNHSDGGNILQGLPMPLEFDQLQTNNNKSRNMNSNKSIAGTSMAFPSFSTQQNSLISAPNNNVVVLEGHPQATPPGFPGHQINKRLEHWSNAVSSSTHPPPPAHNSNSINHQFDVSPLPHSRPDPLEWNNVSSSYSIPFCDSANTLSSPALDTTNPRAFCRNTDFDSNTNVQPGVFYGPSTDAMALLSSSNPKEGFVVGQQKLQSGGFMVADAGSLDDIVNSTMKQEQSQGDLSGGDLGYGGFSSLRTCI
An excerpt:
(§1) The DUPLEX-A™ system (OriGene Technologies) was used for yeast two-hybrid analysis of interactions. KMD cDNAs were cloned into the pGilda bait vector, which produces an in-frame fusion with the LexA DNA-binding domain. Type-B ARR coding sequences were cloned into the pJG4-5 prey vector, which produces a B42 activation domain. The yeast strain EGY48 (MATa, trp1, his3, ura3, leu2::6 LexAop-LEU2) that contains the lacZ reporter plasmid pSH18-34 was transformed with the appropriate “bait” and “prey” plasmids. Interactions were tested on 5-bromo-4-chloro-3-indolyl-p-D-galactopyranoside (X-gal) medium (Ryu, et al. (2005) Cell 120(3): 395-406).
(§2) The KMD proteins also interacted with ARR20 (type-B ARR subfamily-3), but not with ARR19 (subfamily-2) and ARR21 (subfamily-3). […] All four KMD proteins interacted with both ARR1 and ARR12 in a BiFC assay. Strong fluorescence was detected in the nuclei of cells, consistent with the subcellular localization of the type-B ARRs (Hwang & Sheen J (2001) Nature 413(6854):383-389; Mason, et al. (2004) Plant Physiol. 135(2):927-937).

Experiment [2] addresses T2, ARR2 (Arabidopsis, UniProt Q9ZWJ9 1-664, limits assumed).
T2 construct: also called type-B response regulator ARR2
T2 sequence (looked up): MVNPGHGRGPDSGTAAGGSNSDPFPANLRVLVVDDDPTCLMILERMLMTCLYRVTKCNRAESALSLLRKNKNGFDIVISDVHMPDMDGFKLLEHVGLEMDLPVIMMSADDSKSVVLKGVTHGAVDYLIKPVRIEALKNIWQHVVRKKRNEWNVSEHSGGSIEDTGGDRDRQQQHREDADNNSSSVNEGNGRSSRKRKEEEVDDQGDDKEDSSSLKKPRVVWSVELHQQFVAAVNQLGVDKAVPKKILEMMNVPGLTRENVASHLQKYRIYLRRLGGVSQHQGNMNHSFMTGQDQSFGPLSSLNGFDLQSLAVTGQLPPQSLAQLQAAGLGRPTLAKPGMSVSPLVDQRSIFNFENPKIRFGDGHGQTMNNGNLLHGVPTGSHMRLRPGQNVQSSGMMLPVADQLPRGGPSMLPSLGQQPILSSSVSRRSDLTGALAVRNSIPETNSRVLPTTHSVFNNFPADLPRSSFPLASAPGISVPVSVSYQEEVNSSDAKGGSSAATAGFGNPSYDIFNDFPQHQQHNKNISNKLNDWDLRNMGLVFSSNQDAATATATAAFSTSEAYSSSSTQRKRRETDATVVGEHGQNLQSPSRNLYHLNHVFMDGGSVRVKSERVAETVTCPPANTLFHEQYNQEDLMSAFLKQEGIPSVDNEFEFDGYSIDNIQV
Excerpt: as §1, §2

Experiment [3] concerns the target T3, ARR10 (Arabidopsis, UniProt O49397 1-552, limits assumed).
T3 construct: also called type-B response regulator ARR10
T3 sequence (looked up): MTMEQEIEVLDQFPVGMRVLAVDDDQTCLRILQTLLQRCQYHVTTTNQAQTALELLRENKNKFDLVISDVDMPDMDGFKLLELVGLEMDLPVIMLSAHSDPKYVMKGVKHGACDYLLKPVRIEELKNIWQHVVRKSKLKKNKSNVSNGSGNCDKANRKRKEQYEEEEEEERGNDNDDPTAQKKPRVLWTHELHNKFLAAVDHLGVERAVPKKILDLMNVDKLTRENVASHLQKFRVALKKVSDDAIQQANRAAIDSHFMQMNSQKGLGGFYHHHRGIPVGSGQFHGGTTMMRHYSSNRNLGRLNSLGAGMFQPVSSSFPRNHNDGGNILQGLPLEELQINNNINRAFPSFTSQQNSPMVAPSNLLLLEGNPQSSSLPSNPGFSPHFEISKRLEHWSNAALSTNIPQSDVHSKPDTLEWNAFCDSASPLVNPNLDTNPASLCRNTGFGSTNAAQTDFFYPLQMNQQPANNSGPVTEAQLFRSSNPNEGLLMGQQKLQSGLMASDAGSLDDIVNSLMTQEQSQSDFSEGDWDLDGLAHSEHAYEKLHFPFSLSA
Excerpt: as §1, §2

The target of experiment [4] is T4, ARR20 (type-B ARR subfamily-3) (Arabidopsis, UniProt Q9LZJ8 1-426, limits assumed).
T4 sequence (looked up): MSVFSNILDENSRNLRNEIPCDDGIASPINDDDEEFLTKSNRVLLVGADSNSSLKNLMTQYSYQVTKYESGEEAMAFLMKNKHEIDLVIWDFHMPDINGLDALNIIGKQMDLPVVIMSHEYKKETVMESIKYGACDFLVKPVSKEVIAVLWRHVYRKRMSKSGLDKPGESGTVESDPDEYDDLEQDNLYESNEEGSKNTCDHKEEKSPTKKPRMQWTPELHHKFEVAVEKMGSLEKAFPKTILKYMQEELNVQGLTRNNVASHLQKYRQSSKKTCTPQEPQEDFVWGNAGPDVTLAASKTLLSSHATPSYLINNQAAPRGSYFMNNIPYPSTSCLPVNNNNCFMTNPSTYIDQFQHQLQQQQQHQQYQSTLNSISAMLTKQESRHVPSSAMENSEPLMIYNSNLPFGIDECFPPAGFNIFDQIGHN
Excerpt: as §1, §2

The target of experiment [5] is T5, ARR21 (subfamily-3) (Arabidopsis, UniProt Q9LYP5 1-613, limits assumed).
T5 sequence (looked up): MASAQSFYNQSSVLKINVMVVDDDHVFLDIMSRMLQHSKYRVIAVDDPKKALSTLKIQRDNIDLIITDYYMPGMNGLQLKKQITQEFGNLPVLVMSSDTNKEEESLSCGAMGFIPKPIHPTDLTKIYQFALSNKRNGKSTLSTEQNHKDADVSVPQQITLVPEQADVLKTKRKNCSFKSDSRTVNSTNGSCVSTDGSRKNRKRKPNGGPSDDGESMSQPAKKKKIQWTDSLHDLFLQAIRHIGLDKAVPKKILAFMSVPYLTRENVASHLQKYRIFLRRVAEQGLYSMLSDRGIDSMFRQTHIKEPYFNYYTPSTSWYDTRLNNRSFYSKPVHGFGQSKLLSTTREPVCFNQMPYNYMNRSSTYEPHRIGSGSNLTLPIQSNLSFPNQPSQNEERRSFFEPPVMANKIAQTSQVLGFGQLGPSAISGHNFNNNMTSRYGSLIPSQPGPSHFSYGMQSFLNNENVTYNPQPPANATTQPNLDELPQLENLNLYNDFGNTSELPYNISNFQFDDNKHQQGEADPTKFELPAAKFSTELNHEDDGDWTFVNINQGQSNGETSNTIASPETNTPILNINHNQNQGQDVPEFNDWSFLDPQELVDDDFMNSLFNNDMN
Excerpt: as §1, §2

The record followed here is US20160289698A1 (TRUSTEES OF DARTMOUTH COLLEGE, published 2016).

B1: KISS ME DEADLY 4 (KMD4) (other, Arabidopsis, UniProt Q9M1Y1 1-418, looked up)
chain: MGVSKKKSGEIRGDLIPGLPEELAIECLVRVPFQFHSSIKSVCRSWKCVISSRSFIKERIGFGKAESLLCLVQPLTSPPSPAMMEGGEMSQKKKEEEEGESQMTQQLLQPRITGTPLYGLSVYNATLDTWHRVAIPERIPLFCECVAIQDAGKVLLIGGWDPETLQPVRDVFVLDFFAGEGSGRRFRRGRPMSAARSFFACASVGSTKVYVAGGHDDQKNALRSAEVYDVEKDEWSMLPPMTEGRDECHGFSMATDPGFCVLSGYGTETQGQFRSDGEIYDPITNSWSTIENVWPFPDLSPRGRTAAAAAEFPGDFRGCRLWCFIDSERQSQPHWEVEDDSMKWKVIMDTIRLPVTTMTSVFAGSLSGQAVAMIGGGGEESGTMMVKTTAEKNGGKWSHVNTPSGFSSLPFSCSSIYV
notes: Full-length protein; LexA fusion in yeast two-hybrid, YFP^N or YFP^C fusion in BiFC; also called At3g59940
With B1, the binding result is recorded as “binds” in experiment [1]; “binds” in experiment [2]; “binds” in experiment [3]; “binds” in experiment [4]; “no binding” in experiment [5].

B2: KISS ME DEADLY 3 (KMD3) (other, Arabidopsis, UniProt O80582 1-409, looked up)
chain: MTMEVSKKKGGDFQQCHELIPGLPSELALECLVRVPFQFQSAMRSVCRSWRSLLSDSSFIQERRRCGKTELLLCLVQPLTPPIPASKSVDETLMVDEKKSEDESHPRVFCTPRFGLSVYNAAMSTWHRVAFPEEEQIPLFCECVVLQDAGKILLIGGWDPETLQPTRDVYVLEFAGRKWRRGAPMKESRSFFACASVSPTKVYVAGGHDDQKNALRSAEVYDVEKDEWSSVTPMTEGRDECQGFAVGMGLRFCVLSGYGTESQGRFRSDGEIYDPATDSWSRIDNVWRFPDTSPRGRTAGDFRSSSTLWCFTDTDLQSERRWETNDDSRNLKLDLQSIQLPMTGSSVFAGSLGGESVVMIGGKRESEGEGEGGVMMKMTTEKKMGKWSHHVHIPCDFSTLPFSHASIYV
notes: Full-length protein; LexA fusion in yeast two-hybrid, YFP^N or YFP^C fusion in BiFC; also called At2g44130
Consider B2, for which the binding result in experiment [1] was “binds”; in experiment [2] it was “binds”; in experiment [3] it was “binds”; in experiment [4], “binds”; in experiment [5] it was “no binding”.
